Measured values as given in patent publication US20080025989A1 (Seagen, published 2008).

Experiments:
[1] = biological target: T1, human CD70 (human, UniProt P32970 1-193); assay: cell-based or functional assay
T1 sequence (looked up): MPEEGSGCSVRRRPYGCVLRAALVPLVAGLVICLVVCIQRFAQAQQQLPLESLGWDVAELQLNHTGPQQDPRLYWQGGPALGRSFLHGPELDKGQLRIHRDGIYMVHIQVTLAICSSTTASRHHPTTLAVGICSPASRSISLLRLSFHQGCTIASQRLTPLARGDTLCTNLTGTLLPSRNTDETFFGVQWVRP

[2] = biological target: T1, human CD70; assay: flow cytometry on allo-activated T cells after 5 days of MLR
From the text: In the second system, an MLR was set up between PBMC and an irradiated allogeneic stimulator CESS. Allogeneic activation of peripheral blood T cells was achieved by conventional mixed lymphoycte reactions (MLR). MLR were initiated by mixing PBMCs and irradiated allogeneic Epstein-Barr virus (EBV)-transformed B lymphoblastoid CESS cells (ATCC, Manassas, Va.) at a ratio of one T cell to ten irradiated CESS cells. T cell density was adjusted to 0.25×10⁶ T cells/ml of RPMI-1640 supplemented with 10% FBS and 2 mM L-glutamine. Rapid proliferation and expansion of alloreactive T cells was observed after approximately 96 hours of culture. After 5 days of stimulation, cells were assessed for CD70 expression using the anti-CD70 mAb 1F6 by flow cytometry. […] In parallel cultures in 96-well plates, graded doses of either 1F6-vcMMAE or 1F6-vcAFP were included in the cultures at initiation. DNA synthesis was assayed during the last 16 hours of the 5-day culture by a pulse of ³H-TdR.

[3] = biological target: T1, human CD70; assay: cell-based or functional assay; remark: listed apart in the source
[4] = biological target: T1, human CD70; assay: cell-based or functional assay; remark: listed apart in the source
[5] = biological target: T1, human CD70; assay: cell-based or functional assay; remark: listed apart in the source
[6] = biological target: T1, human CD70; assay: immunohistochemistry on frozen RCC tumor sections, 2 µg/ml
Procedure: Immunohistochemistry was used to determine if over-expression of CD70 transcript in RCC was paralleled by CD70 protein expression. Frozen RCC tissue sections and normal adjacent tissue sections from two patients independent of those used in CD70 transcript analysis (FIGS. 6 and 7) were fixed in acetone at −20° C. for 10 minutes. After rehydration in PBS, sections were blocked with PBS containing 5% normal goat serum and Avidin D for 30 minutes at room temperature, and washed in PBS. Sections were incubated with the anti-CD70 mAb 2F2 or non-binding IgG at 2 μg/ml in PBS containing 5% normal goat serum with biotin for 60 minutes at room temperature. After washes with PBS, biotinylated anti-mouse IgG (VECTASTAIN ABC Kit, Vector Laboratories, Burlingame, Calif.) at a 1:250 dilution in PBS containing 5% normal goat serum was used to detect bound primary antibody by incubating for 30 minutes at room temperature. Excess biotinylated anti-mouse IgG was removed by PBS washes. Sections were quenched with 1% H₂O₂ in PBS for 30 minutes at room temperature, washed, and then incubated with the VECTASTAIN ABC complex made up according to the manufacturer's instructions. After PBS washes, sections were incubated for 30 minutes at room temperature with the DAB solution (VECTASTAIN ABC Kit) made up according to the manufacturer's instructions for color development. […]

B1: 1F6-vcAFP (antibody, V domains shown)
VH: QIQLVQSGPEVKKPGETVKISCKASGYTFTNYGMNWVKQAPGKGLKWMGWINTYTGEPTYADAFKGRFAFSLETSASTAYLQINNLKNEDTATYFCARDYGDYGMDYWGQGTSVTVSS
VL: DIVLTQSPASLAVSLGQRATISCRASKSVSTSGYSFMHWYQQKPGQPPKLLIYLASNLESGVPARFSGSGSGTDFTLNIHPVEEEDAATYYCQHSREVPWTFGGGTKLEIKR
modifications: maleimidocaproyl-val-cit-AFP on cysteine thiols of the DTT-reduced antibody (positions not stated)
[1]
  IC50, cytotoxicity (alamarBlue) on CD70+ RCC lines: < 20 ng/mL
  IC50, proliferation of activated CD70-expressing T cell clones C2A, 40D8 and 4.01.1: < 0.05 µg/mL

B2: anti-human CD70 monoclonal antibody 1F6 (antibody, mouse IgG1, V domains shown)
VH: QIQLVQSGPEVKKPGETVKISCKASGYTFTNYGMNWVKQAPGKGLKWMGWINTYTGEPTYADAFKGRFAFSLETSASTAYLQINNLKNEDTATYFCARDYGDYGMDYWGQGTSVTVSS
VL: DIVLTQSPASLAVSLGQRATISCRASKSVSTSGYSFMHWYQQKPGQPPKLLIYLASNLESGVPARFSGSGSGTDFTLNIHPVEEEDAATYYCQHSREVPWTFGGGTKLEIKR
notes: Murine hybridoma mAb from the Netherlands Red Cross Blood Transfusion Service; they were cloned with mouse IgG1 and kappa gene-specific primers; Used AlexaFluor488-conjugated for flow cytometry where necessary; also called mAb 1F6; AF-conjugated 1F6
[2]
  binding result: binds

B3: chimeric 1F6 (c1F6)-mcMMAF4 (antibody, V domains shown)
VH: QIQLVQSGPEVKKPGETVKISCKASGYTFTNYGMNWVKQAPGKGLKWMGWINTYTGEPTYADAFKGRFAFSLETSASTAYLQINNLKNEDTATYFCARDYGDYGMDYWGQGTSVTVSS
VL: DIVLTQSPASLAVSLGQRATISCRASKSVSTSGYSFMHWYQQKPGQPPKLLIYLASNLESGVPARFSGSGSGTDFTLNIHPVEEEDAATYYCQHSREVPWTFGGGTKLEIKR
modifications: maleimidocaproyl-MMAF drug-linker, average of four per antibody (positions not stated)
[3]
  IC50 (ng/mL), cytotoxicity on DBTRG-05MG cells: 20 ng/mL
  IC50 (ng/mL), cytotoxicity on GMS-10 cells: 110 ng/mL
  IC50 (ng/mL), cytotoxicity on SNB-19 cells: 27 ng/mL
  IC50 (ng/mL), cytotoxicity on U251 cells: 15 ng/mL
  IC50 (ng/mL), cytotoxicity on U373MG cells: 35 ng/mL
[4]
  IC50 (ng/mL), cytotoxicity on AMO-1 cells: 38 ng/mL
  IC50 (ng/mL), cytotoxicity on JJN-3 cells: 61 ng/mL
  IC50 (ng/mL), cytotoxicity on L363 cells: 210 ng/mL
  IC50 (ng/mL), cytotoxicity on LB cells: 500 ng/mL
  IC50 (ng/mL), cytotoxicity on LP-1 cells: 155 ng/mL
  IC50 (ng/mL), cytotoxicity on MM.1R cells: 20 ng/mL
  IC50 (ng/mL), cytotoxicity on MM.1S cells: 22 ng/mL
  IC50 (ng/mL), cytotoxicity on MOLP-8 cells: 33 ng/mL
  IC50 (ng/mL), cytotoxicity on U266 cells: 1.7 ng/mL
[5]
  IC50 (ng/mL), cytotoxicity on Hs445 cells: 310 ng/mL
  IC50 (ng/mL), cytotoxicity on KMH2 cells: 5.2 ng/mL
  IC50 (ng/mL), cytotoxicity on L428 cells: 35 ng/mL
  IC50 (ng/mL), cytotoxicity on RPMI-6666 cells: 230 ng/mL
  IC50 (ng/mL), cytotoxicity on SUP-HD-1 cells: 53 ng/mL

B4: 1F6-vcMMAF (antibody, V domains shown)
VH: QIQLVQSGPEVKKPGETVKISCKASGYTFTNYGMNWVKQAPGKGLKWMGWINTYTGEPTYADAFKGRFAFSLETSASTAYLQINNLKNEDTATYFCARDYGDYGMDYWGQGTSVTVSS
VL: DIVLTQSPASLAVSLGQRATISCRASKSVSTSGYSFMHWYQQKPGQPPKLLIYLASNLESGVPARFSGSGSGTDFTLNIHPVEEEDAATYYCQHSREVPWTFGGGTKLEIKR
modifications: MC-Val-Cit-PAB-MMAF on cysteine thiols of the DTT-reduced antibody (positions not stated)
[1]
  IC50, cytotoxicity (alamarBlue) on CD70+ RCC lines: < 30 ng/mL
  IC50, proliferation inhibition of all CD70+ RCC lines tested: < 30 ng/mL

B5: 1F6-vcMMAE (antibody, V domains shown)
VH: QIQLVQSGPEVKKPGETVKISCKASGYTFTNYGMNWVKQAPGKGLKWMGWINTYTGEPTYADAFKGRFAFSLETSASTAYLQINNLKNEDTATYFCARDYGDYGMDYWGQGTSVTVSS
VL: DIVLTQSPASLAVSLGQRATISCRASKSVSTSGYSFMHWYQQKPGQPPKLLIYLASNLESGVPARFSGSGSGTDFTLNIHPVEEEDAATYYCQHSREVPWTFGGGTKLEIKR
modifications: maleimidocaproyl-val-cit-PAB-MMAE on cysteine thiols of the DTT-reduced antibody (positions not stated)
[1]
  IC50, proliferation of Caki-1 cells: < 20 ng/mL
  IC50, proliferation of Caki-2 cells: < 20 ng/mL

B6: chimeric 1F6(c1F6)-vcMMAF4 (antibody, V domains shown)
VH: QIQLVQSGPEVKKPGETVKISCKASGYTFTNYGMNWVKQAPGKGLKWMGWINTYTGEPTYADAFKGRFAFSLETSASTAYLQINNLKNEDTATYFCARDYGDYGMDYWGQGTSVTVSS
VL: DIVLTQSPASLAVSLGQRATISCRASKSVSTSGYSFMHWYQQKPGQPPKLLIYLASNLESGVPARFSGSGSGTDFTLNIHPVEEEDAATYYCQHSREVPWTFGGGTKLEIKR
modifications: val-cit-MMAF drug-linker, average of four per antibody (positions not stated)
[3]
  IC50 (ng/mL), cytotoxicity on DBTRG-05MG cells: 2.3 ng/mL
  IC50 (ng/mL), cytotoxicity on GMS-10 cells: 27 ng/mL
  IC50 (ng/mL), cytotoxicity on SNB-19 cells: 12 ng/mL
  IC50 (ng/mL), cytotoxicity on U251 cells: 5.3 ng/mL
  IC50 (ng/mL), cytotoxicity on U373MG cells: 16 ng/mL
[4]
  IC50 (ng/mL), cytotoxicity on AMO-1 cells: 16 ng/mL
  IC50 (ng/mL), cytotoxicity on JJN-3 cells: 46 ng/mL
  IC50 (ng/mL), cytotoxicity on L363 cells: 78 ng/mL
  IC50 (ng/mL), cytotoxicity on LB cells: 80 ng/mL
  IC50 (ng/mL), cytotoxicity on LP-1 cells: 160 ng/mL
  IC50 (ng/mL), cytotoxicity on MM.1R cells: 13 ng/mL
  IC50 (ng/mL), cytotoxicity on MM.1S cells: 20 ng/mL
  IC50 (ng/mL), cytotoxicity on MOLP-8 cells: 73 ng/mL
  IC50 (ng/mL), cytotoxicity on U266 cells: 1.2 ng/mL
[5]
  IC50 (ng/mL), cytotoxicity on Hs445 cells: 7.3 ng/mL
  IC50 (ng/mL), cytotoxicity on KMH2 cells: 0.41 ng/mL
  IC50 (ng/mL), cytotoxicity on L428 cells: 1.4 ng/mL
  IC50 (ng/mL), cytotoxicity on RPMI-6666 cells: 42 ng/mL
  IC50 (ng/mL), cytotoxicity on SUP-HD-1 cells: 6.3 ng/mL

B7: anti-human CD70 monoclonal antibody 2F2 (antibody, mouse IgG1, V domains shown)
VH: QVQLQQSGTELMTPGASVTMSCKTSGYTFSTYWIEWVKQRPGHGLEWIGEILGPSGYTDYNEKFKAKATFTADTSSNTAYMQLSSLASEDSAVYYCARWDRLYAMDYWGGGTSVTVSS
VL: DIVLTQSPASLTVSLGQKTTISCRASKSVSTSGYSFMHWYQLKPGQSPKLLIYLASDLPSGVPARFSGSGSGTDFTLKIHPVEEEDAATYYCQHSREIPYTFGGGTKLEITR
notes: Murine hybridoma mAb; they were cloned with mouse IgG1 and kappa gene-specific primers; also called mAb 2F2
[6]
  binding result: binds
